Source: publication PMC4652773, “Functional significance of protein assemblies predicted by the crystal structure of the restriction endonuclease BsaWI”

Legend:
[1] = biological target: BsaWI E128A&W262A (Bacillus stearothermophilus W1718); assay: SEC; gel filtration of the tetramerization interface mutants at up to 25 μM protein; Superdex column, room temperature, 20 mM Tris-HCl pH 7.4, 0.5 M NaCl, 5% glycerol
[2] = biological target: BsaWI E128A&W262A (Bacillus stearothermophilus W1718)
[3] = biological target: BsaWI E128A&W262A (Bacillus stearothermophilus W1718); assay: SEC; gel filtration at 5 μM loading concentration; Superdex column, room temperature, 20 mM Tris-HCl pH 7.4, 0.5 M NaCl, 5% glycerol; oligomeric state from the apparent Mw
[4] = biological target: BsaWI E128A&W262A (Bacillus stearothermophilus W1718); assay: native gel or EMSA; 1 nM 33P-labeled 30-bp SP duplex with 0.02-1000 nM protein, 40 mM Tris-acetate pH 8.3, 0.1 mg/ml BSA, 10% glycerol, 5 mM CaCl2, room temperature; oligomeric state of the DNA-bound protein read from the mobility of the complex
[5] = biological target: BsaWI R259A (Bacillus stearothermophilus W1718); assay: SEC; gel filtration of the tetramerization interface mutants at up to 25 μM protein; Superdex column, room temperature, 20 mM Tris-HCl pH 7.4, 0.5 M NaCl, 5% glycerol
[6] = biological target: BsaWI R259A (Bacillus stearothermophilus W1718)
[7] = biological target: BsaWI R259A (Bacillus stearothermophilus W1718); assay: SEC; gel filtration at 5 μM loading concentration; Superdex column, room temperature, 20 mM Tris-HCl pH 7.4, 0.5 M NaCl, 5% glycerol; oligomeric state from the apparent Mw
[8] = biological target: BsaWI R259A (Bacillus stearothermophilus W1718); assay: native gel or EMSA; 1 nM 33P-labeled 30-bp SP duplex with 0.02-1000 nM protein, 40 mM Tris-acetate pH 8.3, 0.1 mg/ml BSA, 10% glycerol, 5 mM CaCl2, room temperature; oligomeric state of the DNA-bound protein read from the mobility of the complex
[9] = biological target: BsaWI E128A&R130A (Bacillus stearothermophilus W1718); assay: SEC; gel filtration of the tetramerization interface mutants at up to 25 μM protein; Superdex column, room temperature, 20 mM Tris-HCl pH 7.4, 0.5 M NaCl, 5% glycerol
[10] = biological target: BsaWI E128A&R130A (Bacillus stearothermophilus W1718)
[11] = biological target: BsaWI E128A&R130A (Bacillus stearothermophilus W1718); assay: SEC; gel filtration at 5 μM loading concentration; Superdex column, room temperature, 20 mM Tris-HCl pH 7.4, 0.5 M NaCl, 5% glycerol; oligomeric state from the apparent Mw
[12] = biological target: BsaWI E128A&R130A (Bacillus stearothermophilus W1718); assay: native gel or EMSA; 1 nM 33P-labeled 30-bp SP duplex with 0.02-1000 nM protein, 40 mM Tris-acetate pH 8.3, 0.1 mg/ml BSA, 10% glycerol, 5 mM CaCl2, room temperature; oligomeric state of the DNA-bound protein read from the mobility of the complex
[13] = biological target: BsaWI R130A&R259A (Bacillus stearothermophilus W1718); assay: SEC; gel filtration of the tetramerization interface mutants at up to 25 μM protein; Superdex column, room temperature, 20 mM Tris-HCl pH 7.4, 0.5 M NaCl, 5% glycerol
[14] = biological target: BsaWI R130A&R259A (Bacillus stearothermophilus W1718)
[15] = biological target: BsaWI R130A&R259A (Bacillus stearothermophilus W1718); assay: SEC; gel filtration at 5 μM loading concentration; Superdex column, room temperature, 20 mM Tris-HCl pH 7.4, 0.5 M NaCl, 5% glycerol; oligomeric state from the apparent Mw
[16] = biological target: BsaWI R130A&R259A (Bacillus stearothermophilus W1718); assay: native gel or EMSA; 1 nM 33P-labeled 30-bp SP duplex with 0.02-1000 nM protein, 40 mM Tris-acetate pH 8.3, 0.1 mg/ml BSA, 10% glycerol, 5 mM CaCl2, room temperature; oligomeric state of the DNA-bound protein read from the mobility of the complex
[17] = biological target: BsaWI R259A&W262A (Bacillus stearothermophilus W1718); assay: SEC; gel filtration of the tetramerization interface mutants at up to 25 μM protein; Superdex column, room temperature, 20 mM Tris-HCl pH 7.4, 0.5 M NaCl, 5% glycerol
[18] = biological target: BsaWI R259A&W262A (Bacillus stearothermophilus W1718)
[19] = biological target: BsaWI R259A&W262A (Bacillus stearothermophilus W1718); assay: SEC; gel filtration at 5 μM loading concentration; Superdex column, room temperature, 20 mM Tris-HCl pH 7.4, 0.5 M NaCl, 5% glycerol; oligomeric state from the apparent Mw
[20] = biological target: BsaWI R259A&W262A (Bacillus stearothermophilus W1718); assay: native gel or EMSA; 1 nM 33P-labeled 30-bp SP duplex with 0.02-1000 nM protein, 40 mM Tris-acetate pH 8.3, 0.1 mg/ml BSA, 10% glycerol, 5 mM CaCl2, room temperature; oligomeric state of the DNA-bound protein read from the mobility of the complex
[21] = biological target: BsaWI R130A (Bacillus stearothermophilus W1718); assay: SEC; gel filtration of the tetramerization interface mutants at up to 25 μM protein; Superdex column, room temperature, 20 mM Tris-HCl pH 7.4, 0.5 M NaCl, 5% glycerol
[22] = biological target: BsaWI R130A (Bacillus stearothermophilus W1718)
[23] = biological target: BsaWI R130A (Bacillus stearothermophilus W1718); assay: SEC; gel filtration at 5 μM loading concentration; Superdex column, room temperature, 20 mM Tris-HCl pH 7.4, 0.5 M NaCl, 5% glycerol; oligomeric state from the apparent Mw
[24] = biological target: BsaWI R130A (Bacillus stearothermophilus W1718); assay: native gel or EMSA; 1 nM 33P-labeled 30-bp SP duplex with 0.02-1000 nM protein, 40 mM Tris-acetate pH 8.3, 0.1 mg/ml BSA, 10% glycerol, 5 mM CaCl2, room temperature; oligomeric state of the DNA-bound protein read from the mobility of the complex
[25] = biological target: BsaWI E128A (Bacillus stearothermophilus W1718); assay: SEC; gel filtration of the tetramerization interface mutants at up to 25 μM protein; Superdex column, room temperature, 20 mM Tris-HCl pH 7.4, 0.5 M NaCl, 5% glycerol
[26] = biological target: BsaWI E128A (Bacillus stearothermophilus W1718)
[27] = biological target: BsaWI E128A (Bacillus stearothermophilus W1718); assay: SEC; gel filtration at 5 μM loading concentration; Superdex column, room temperature, 20 mM Tris-HCl pH 7.4, 0.5 M NaCl, 5% glycerol; oligomeric state from the apparent Mw
[28] = biological target: BsaWI E128A (Bacillus stearothermophilus W1718); assay: native gel or EMSA; 1 nM 33P-labeled 30-bp SP duplex with 0.02-1000 nM protein, 40 mM Tris-acetate pH 8.3, 0.1 mg/ml BSA, 10% glycerol, 5 mM CaCl2, room temperature; oligomeric state of the DNA-bound protein read from the mobility of the complex
[29] = biological target: BsaWI D145A (Bacillus stearothermophilus W1718); assay: SEC; gel filtration at 5 μM loading concentration; Superdex column, room temperature, 20 mM Tris-HCl pH 7.4, 0.5 M NaCl, 5% glycerol; oligomeric state from the apparent Mw
[30] = biological target: BsaWI D175A (Bacillus stearothermophilus W1718); assay: as above
[31] = biological target: restriction endonuclease BsaWI, wild type (Bacillus stearothermophilus W1718)
[32] = biological target: restriction endonuclease BsaWI, wild type (Bacillus stearothermophilus W1718); assay: SEC; gel filtration at 5 μM loading concentration; Superdex column, room temperature, 20 mM Tris-HCl pH 7.4, 0.5 M NaCl, 5% glycerol; oligomeric state from the apparent Mw
[33] = biological target: restriction endonuclease BsaWI, wild type (Bacillus stearothermophilus W1718); assay: SEC; gel filtration of the BsaWI-DNA complex with the 30 bp SP oligoduplex; Superdex column, room temperature, 20 mM Tris-HCl pH 7.4, 0.5 M NaCl, 5% glycerol
[34] = biological target: restriction endonuclease BsaWI, wild type (Bacillus stearothermophilus W1718); assay: native gel or EMSA; 1 nM 33P-labeled 30-bp SP duplex with 0.02-1000 nM protein, 40 mM Tris-acetate pH 8.3, 0.1 mg/ml BSA, 10% glycerol, 5 mM CaCl2, room temperature; oligomeric state of the DNA-bound protein read from the mobility of the complex
[35] = biological target: restriction endonuclease BsaWI, wild type (Bacillus stearothermophilus W1718); assay: SEC; gel filtration at low loading concentrations (0.25-1 μM); Superdex column, room temperature, 20 mM Tris-HCl pH 7.4, 0.5 M NaCl, 5% glycerol
[36] = biological target: restriction endonuclease BsaWI, wild type (Bacillus stearothermophilus W1718); assay: SEC; gel filtration at 2.5-5 μM loading concentration (concentration series); Superdex column, room temperature, 20 mM Tris-HCl pH 7.4, 0.5 M NaCl, 5% glycerol
[37] = biological target: BsaWI K85A (Bacillus stearothermophilus W1718); assay: SEC; gel filtration at 5 μM loading concentration; Superdex column, room temperature, 20 mM Tris-HCl pH 7.4, 0.5 M NaCl, 5% glycerol; oligomeric state from the apparent Mw
BsaWI wt [38] = biological target: T1, BsaWI wt (UniProt Q6UQ65 1-272); assay: EMSA; 5 mM Ca2+; lower mobility complex; EMSA: 40 mM Tris-acetate pH 8.3, 0.1 mg/ml BSA, 10% glycerol, 5 mM CaCl2 or 0.1 mM EDTA, 1 nM DNA, room temperature, 15 min; conditions: protein: recombinant; chain copies: 4; label: 33P; blunt
T1 sequence: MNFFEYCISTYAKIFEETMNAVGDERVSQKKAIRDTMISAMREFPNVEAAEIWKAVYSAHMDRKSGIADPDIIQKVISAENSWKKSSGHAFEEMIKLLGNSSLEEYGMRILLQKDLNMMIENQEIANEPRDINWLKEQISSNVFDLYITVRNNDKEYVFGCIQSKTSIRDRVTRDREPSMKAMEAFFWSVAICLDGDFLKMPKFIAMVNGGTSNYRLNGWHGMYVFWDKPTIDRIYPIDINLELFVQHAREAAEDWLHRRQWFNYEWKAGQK

BsaWI wt [39] = biological target: T1, BsaWI wt; assay: crystal structure; 0.02 M CaCl2 in crystallization buffer; no Ca2+ seen; pre-specific complex; 2.40 A; EMSA: 40 mM Tris-acetate pH 8.3, 0.1 mg/ml BSA, 10% glycerol, 5 mM CaCl2 or 0.1 mM EDTA, 1 nM DNA, room temperature, 15 min; conditions: protein: recombinant; chain copies: 4; blunt; self-complementary, 2 copies of strand

## BsaWI E128A&W262A (enzyme)
[1]
  stoichiometry N: 2
[2]
  ratio of DNA cleavage rate constants kobs for the 2-site and 1-site substrates at optimal enzyme concentration: 2.2
[3]
  stoichiometry N: 2
[4]
  stoichiometry N: 2

## BsaWI R259A (enzyme)
[5]
  stoichiometry N: 2
[6]
  ratio of DNA cleavage rate constants kobs for the 2-site and 1-site substrates at optimal enzyme concentration: 14.4
[7]
  stoichiometry N: 2
[8]
  stoichiometry N: 2

## BsaWI E128A&R130A (enzyme)
[9]
  stoichiometry N: 2
[10]
  ratio of DNA cleavage rate constants kobs for the 2-site and 1-site substrates at optimal enzyme concentration: 1.8
[11]
  stoichiometry N: 2
[12]
  stoichiometry N: 2

## BsaWI R130A&R259A (enzyme)
[13]
  stoichiometry N: 2
[14]
  ratio of DNA cleavage rate constants kobs for the 2-site and 1-site substrates at optimal enzyme concentration: 1.1
[15]
  stoichiometry N: 2
[16]
  stoichiometry N: 2

## BsaWI R259A&W262A (enzyme)
[17]
  stoichiometry N: 2
[18]
  ratio of DNA cleavage rate constants kobs for the 2-site and 1-site substrates at optimal enzyme concentration: 2.2
[19]
  stoichiometry N: 2
[20]
  stoichiometry N: 2

## BsaWI R130A (enzyme)
[21]
  stoichiometry N: 2
[22]
  ratio of DNA cleavage rate constants kobs for the 2-site and 1-site substrates at optimal enzyme concentration: 2.4
[23]
  stoichiometry N: 2
[24]
  stoichiometry N: 2

## BsaWI E128A (enzyme)
[25]
  stoichiometry N: 2
[26]
  ratio of DNA cleavage rate constants kobs for the 2-site and 1-site substrates at optimal enzyme concentration: 17.9
[27]
  stoichiometry N: 2
[28]
  stoichiometry N: 2

## BsaWI D145A (enzyme)
[29]
  stoichiometry N: 4

## BsaWI D175A (enzyme)
[30]
  stoichiometry N: 4

## restriction endonuclease BsaWI, wild type (enzyme)
[31]
  ratio of DNA cleavage rate constants kobs for the 2-site and 1-site substrates at optimal enzyme concentration: 20.6
[32]
  stoichiometry N: 4
[33]
  stoichiometry N: 4
[34]
  stoichiometry N: 4
[35]
  stoichiometry N: 2
[36]
  stoichiometry N: 4

## BsaWI K85A (enzyme)
[37]
  stoichiometry N: 4

B1: NSP (dsDNA)
DNA 1: AATGGGCTCGCACGCCTGGTATTATCGATTGTA
DNA 2: TACAATCGATAATACCAGGCGTGCGAGCCCATT
BsaWI wt [38]
  Kd: ~10 nM

B2: SP14 (dsDNA)
DNA 1: CTCGACCGGTCGAG
DNA 2: CTCGACCGGTCGAG
BsaWI wt [39]
  binding result: binds
